From US20260008830A1 (FUNDACI CENTRE DE REGULACI GEN MICA, published 2026)

T1: IL-22 receptors R1 and R2 on HEK-Blue IL-22 reporter cells (UniProt Q8N6P7 16-574; Q08334 20-325, limits assumed)
T1 sequence (looked up) 1: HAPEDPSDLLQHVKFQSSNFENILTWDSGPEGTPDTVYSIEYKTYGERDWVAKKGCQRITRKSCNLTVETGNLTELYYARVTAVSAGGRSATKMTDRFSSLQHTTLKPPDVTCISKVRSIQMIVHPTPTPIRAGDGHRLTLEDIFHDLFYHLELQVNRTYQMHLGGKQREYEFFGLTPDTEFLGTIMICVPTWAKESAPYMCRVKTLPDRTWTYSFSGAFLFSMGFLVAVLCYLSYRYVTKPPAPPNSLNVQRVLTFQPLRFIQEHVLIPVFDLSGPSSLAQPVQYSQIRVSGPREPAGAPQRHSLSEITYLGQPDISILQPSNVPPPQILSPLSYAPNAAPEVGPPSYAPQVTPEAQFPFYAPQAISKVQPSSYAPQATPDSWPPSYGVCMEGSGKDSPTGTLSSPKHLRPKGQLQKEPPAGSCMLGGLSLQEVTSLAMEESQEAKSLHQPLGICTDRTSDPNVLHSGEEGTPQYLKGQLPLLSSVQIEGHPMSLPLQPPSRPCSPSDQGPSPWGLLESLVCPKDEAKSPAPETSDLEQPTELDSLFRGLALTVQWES
T1 sequence (looked up) 2: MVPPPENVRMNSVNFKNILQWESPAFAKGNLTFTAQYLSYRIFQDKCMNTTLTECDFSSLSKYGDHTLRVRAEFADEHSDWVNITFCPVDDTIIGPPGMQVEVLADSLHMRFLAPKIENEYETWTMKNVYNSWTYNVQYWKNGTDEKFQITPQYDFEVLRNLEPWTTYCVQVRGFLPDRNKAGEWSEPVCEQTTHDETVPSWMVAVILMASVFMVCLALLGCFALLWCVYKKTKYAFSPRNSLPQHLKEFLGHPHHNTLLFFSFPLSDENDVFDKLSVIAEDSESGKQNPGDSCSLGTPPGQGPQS

T2: IL-10 receptors R1 and R2 on HEK-Blue IL-10 reporter cells (UniProt Q13651 22-578; Q08334 20-325, limits assumed)
T2 sequence (looked up) 1: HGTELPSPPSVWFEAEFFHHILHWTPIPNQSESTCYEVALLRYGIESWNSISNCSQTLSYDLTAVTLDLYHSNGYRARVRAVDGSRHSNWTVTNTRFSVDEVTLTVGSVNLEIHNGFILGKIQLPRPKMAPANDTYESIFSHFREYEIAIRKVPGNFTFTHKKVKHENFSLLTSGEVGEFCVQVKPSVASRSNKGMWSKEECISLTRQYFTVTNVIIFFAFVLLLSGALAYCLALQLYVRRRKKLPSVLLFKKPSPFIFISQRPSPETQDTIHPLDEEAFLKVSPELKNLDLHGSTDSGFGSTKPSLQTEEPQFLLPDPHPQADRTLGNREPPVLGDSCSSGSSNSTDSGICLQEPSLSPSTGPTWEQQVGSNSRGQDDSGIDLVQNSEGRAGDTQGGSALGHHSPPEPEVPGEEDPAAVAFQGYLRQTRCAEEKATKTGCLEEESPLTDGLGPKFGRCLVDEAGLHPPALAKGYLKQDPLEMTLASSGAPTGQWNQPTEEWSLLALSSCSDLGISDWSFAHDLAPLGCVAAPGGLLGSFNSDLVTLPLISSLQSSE
T2 sequence (looked up) 2: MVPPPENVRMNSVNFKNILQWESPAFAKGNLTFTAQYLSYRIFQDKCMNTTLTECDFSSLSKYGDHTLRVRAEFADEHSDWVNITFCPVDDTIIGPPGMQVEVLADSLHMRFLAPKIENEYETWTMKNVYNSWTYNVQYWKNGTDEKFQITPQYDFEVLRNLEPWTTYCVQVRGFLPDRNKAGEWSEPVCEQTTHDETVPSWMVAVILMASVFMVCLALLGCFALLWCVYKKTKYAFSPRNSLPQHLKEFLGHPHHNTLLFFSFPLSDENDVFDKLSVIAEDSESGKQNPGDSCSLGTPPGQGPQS

T3: IFN-gamma receptor on HEK-Dual cells (Human IFN-γ SEAP/Luciferase Reporter Cells, hkd-ifng)
T3 sequence (P15260 whole entry, looked up): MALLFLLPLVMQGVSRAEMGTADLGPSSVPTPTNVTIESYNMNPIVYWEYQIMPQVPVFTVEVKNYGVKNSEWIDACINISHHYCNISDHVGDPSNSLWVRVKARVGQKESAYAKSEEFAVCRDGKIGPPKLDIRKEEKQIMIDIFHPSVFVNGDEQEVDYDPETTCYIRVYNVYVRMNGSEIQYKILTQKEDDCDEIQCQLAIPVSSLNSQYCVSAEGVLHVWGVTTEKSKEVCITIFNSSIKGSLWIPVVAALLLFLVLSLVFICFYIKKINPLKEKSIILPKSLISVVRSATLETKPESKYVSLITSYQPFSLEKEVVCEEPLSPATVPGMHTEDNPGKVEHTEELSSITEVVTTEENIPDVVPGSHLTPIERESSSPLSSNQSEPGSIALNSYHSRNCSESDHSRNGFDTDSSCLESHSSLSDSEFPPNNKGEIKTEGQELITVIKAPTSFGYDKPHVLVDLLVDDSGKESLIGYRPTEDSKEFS
T3 sequence (P38484 whole entry, looked up): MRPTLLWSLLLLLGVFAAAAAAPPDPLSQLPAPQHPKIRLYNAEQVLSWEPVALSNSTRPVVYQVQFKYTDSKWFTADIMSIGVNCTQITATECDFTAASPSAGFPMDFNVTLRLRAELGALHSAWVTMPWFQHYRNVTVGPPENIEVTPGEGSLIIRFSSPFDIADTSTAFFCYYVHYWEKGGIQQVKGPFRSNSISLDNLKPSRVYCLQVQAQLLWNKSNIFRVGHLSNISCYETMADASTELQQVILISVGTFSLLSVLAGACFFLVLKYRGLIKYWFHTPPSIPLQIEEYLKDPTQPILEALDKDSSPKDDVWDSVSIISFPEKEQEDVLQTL


Experiments:
Experiment in all cases: cell-based or functional assay
[1] = biological target: T1, IL-22 receptors R1 and R2 on HEK-Blue …
[2] = biological target: T2, IL-10 receptors R1 and R2 on HEK-Blue …
[3] = biological target: T3, IFN-gamma receptor on HEK-Dual cells …

| Binder | EC-50 (IL-22 reporter HEK blue cells, SEAP, absorbance 630 nm) [1] | further results |
| --- | --- | --- |
| ORK22-014 (Foldikine-22, two polyGly InterLinkers) (ligand) APISESGEIKAIGELDLLFMSLRNACIGGGGGGGGGGAPISSHCRLDKSNFQQPYITNRTFMLAKEASLADNNTDVRLIGEKLFHGVSMSERCYLMKQVLNFTLEEVLFPQSDRFQPYMQEVVPFLARLSNRLSTCHIEGDDLHIQRNVQKLKDTVKKLGESGEIKAIGELDLLFMSLRNACIGGGGGGGGGGAPISSHCRLDKSNFQQPYITNRTFMLAKEASLADNNTDVRLIGEKLFHGVSMSERCYLMKQVLNFTLEEVLFPQSDRFQPYMQEVVPFLARLSNRLSTCHIEGDDLHIQRNVQKLKDTVKKLG | 2420 pM |  |
| IL22_WT (IL-22 WT expressed in CHO cells) (ligand) APISSHCRLDKSNFQQPYITNRTFMLAKEASLADNNTDVRLIGEKLFHGVSMSERCYLMKQVLNFTLEEVLFPQSDRFQPYMQEVVPFLARLSNRLSTCHIEGDDLHIQRNVQKLKDTVKKLGESGEIKAIGELDLLFMSLRNACI | 97.6 pM |  |
| ORK22-012 (Foldikine-22, two InterLinkers GGPPPPPPGG) (ligand) APISESGEIKAIGELDLLFMSLRNACIGGPPPPPPGGAPISSHCRLDKSNFQQPYITNRTFMLAKEASLADNNTDVRLIGEKLFHGVSMSERCYLMKQVLNFTLEEVLFPQSDRFQPYMQEVVPFLARLSNRLSTCHIEGDDLHIQRNVQKLKDTVKKLGESGEIKAIGELDLLFMSLRNACIGGPPPPPPGGAPISSHCRLDKSNFQQPYITNRTFMLAKEASLADNNTDVRLIGEKLFHGVSMSERCYLMKQVLNFTLEEVLFPQSDRFQPYMQEVVPFLARLSNRLSTCHIEGDDLHIQRNVQKLKDTVKKLG | 43.3 pM |  |
| MutSC1_controlcenter_21 (ligand) KSKAVEQVKNAFNKLQEKGIYKAMSEFDIFINYIEAYMTMNFGGLDYLPNMLRDLRDAFSRVKTFFQMKDQLDNLLLKESLLEDFKGYLGCQALSEMIQFYLEEVMPQAENQDPDIKAHVNSLGENLKTLRLRLRRCHRFLPCENKSKAVEQVKNAFNKLQEKGIYKAMSEFDIFINYIEAYMTMNFGGLDYLPNMLRDLRDAFSRVKTFFQMKDQLDNLLLKESLLEDFKGYLGCQALSEMIQFYLEEVMPQAENQDPDIKAHVNSLGENLKTLRLRLRRCHFLPCEN |  | activation of HEK blue cells, apparent KD fit (drop against MutSC1) [2]: ~2.5 fold |
| ORKIFNg-002 (Foldikine-IFNG, single chain dimeric IFN gamma) (ligand) GSQDPYVKEAENLKKYFNAGHSDVADNGTLFLGILKNWKEESDRKIMQSQIVSFYFKLFKNFKDDQSIQKSVETIKEDMNVKFFNSNKKKRDDFEKLTNYSVTDLNVQRKAIHELIQVMASKPHPGQLWAYVKEAENLKKYFNAGHSDVADNGTLFLGILKNWKEESDRKIMQSQIVSFYFKLFKNFKDDQSIQKSVETIKEDMNVKFFNSNKKKRDDFEKLTNYSVTDLNVQRKAIHELIQVMAELSPAA |  | EC50 (HEK Dual cells responding to IFNγ) [3]: 0.0328 nM |
